The Immune Epitope Database (IEDB)

Experiments:
HLA-A*01:01 [1] = assay: IEDB peptide-MHC binding, purified MHC/direct/fluorescence; filed as Kd, often an IC50 or EC50 that approximates it; ≥ and ≤ were set here for values at or beyond the usual limits of such assays
HLA-A*03:01 [2] = assay: as above
HLA-A*11:01 [3] = assay: as above
HLA-A*26:01 [4] = assay: as above; conditions: source organism: Variola virus
HLA-A*26:02 = assay: as above; conditions: source organism: Variola virus
HLA-A*69:01 = assay: as above
HLA-B*07:02 [5] = assay: as above
HLA-B*08:01 = assay: as above; conditions: source organism: Variola virus
HLA-B*08:03 = assay: as above; conditions: source organism: Variola virus
HLA-B*15:01 [6] = assay: as above
HLA-B*18:01 [7] = assay: as above; conditions: source organism: Camelpox virus M-96
HLA-B*40:01 = assay: as above
HLA-B*46:01 [8] = assay: as above; conditions: source organism: Camelpox virus M-96
HLA-B*48:01 = assay: as above
HLA-B*57:01 = assay: as above; conditions: source organism: Camelpox virus M-96
HLA-B*58:01 = assay: as above
HLA-A*02:01 [9] = assay: IEDB peptide-MHC binding, purified MHC/competitive/fluorescence; filed as Kd, often an IC50 or EC50 that approximates it; ≥ and ≤ were set here for values at or beyond the usual limits of such assays; conditions: source organism: Vaccinia virus Copenhagen
HLA-A*26:03 = assay: as above
HLA-A*31:01 [10] = assay: as above; conditions: source organism: Vaccinia virus Copenhagen
HLA-A*68:02 = assay: as above
HLA-B*15:17 = assay: as above
HLA-B*27:05 [11] = assay: as above; conditions: source organism: Vaccinia virus Copenhagen
HLA-A*02:01 [12] = assay: IEDB peptide-MHC binding, purified MHC/direct/fluorescence; filed as Kd, often an IC50 or EC50 that approximates it; ≥ and ≤ were set here for values at or beyond the usual limits of such assays; conditions: source organism: Camelpox virus CMS
HLA-A*31:01 [13] = assay: as above; conditions: source organism: Camelpox virus CMS
HLA-B*27:05 [14] = assay: as above; conditions: source organism: Camelpox virus CMS
HLA-C*12:03 = assay: as above; conditions: source organism: Vaccinia virus Tian Tan
HLA-A*02:06 = assay: IEDB peptide-MHC binding, purified MHC/competitive/fluorescence; filed as Kd, often an IC50 or EC50 that approximates it; ≥ and ≤ were set here for values at or beyond the usual limits of such assays; conditions: source organism: Vaccinia virus Tian Tan
HLA-A*26:01 [15] = assay: as above; conditions: source organism: Vaccinia virus Tian Tan
HLA-B*15:01 [16] = assay: as above; conditions: source organism: Vaccinia virus Tian Tan
HLA-B*18:01 [17] = assay: as above; conditions: source organism: Vaccinia virus Tian Tan
HLA-B*35:01 = assay: as above; conditions: source organism: Vaccinia virus Tian Tan
HLA-A*30:01 = assay: IEDB peptide-MHC binding, purified MHC/competitive/radioactivity; filed as Kd, often an IC50 or EC50 that approximates it; ≥ and ≤ were set here for values at or beyond the usual limits of such assays; conditions: source organism: Vaccinia virus WR
HLA-B*51:01 = assay: IEDB peptide-MHC binding, purified MHC/direct/fluorescence; filed as Kd, often an IC50 or EC50 that approximates it; ≥ and ≤ were set here for values at or beyond the usual limits of such assays; conditions: source organism: Vibrio parahaemolyticus
HLA-C*14:02 = assay: as above; conditions: source organism: Vibrio antiquarius
HLA-A*01:01 [18] = assay: IEDB peptide-MHC binding, purified MHC/competitive/fluorescence; ≥ and ≤ were set here for values at or beyond the usual limits of such assays
HLA-A*02:01 [19] = assay: as above; conditions: source organism: Vaccinia virus Copenhagen
HLA-A*03:01 [20] = assay: as above; conditions: source organism: Vaccinia virus Copenhagen
HLA-A*11:01 [21] = assay: as above; conditions: source organism: Vaccinia virus Copenhagen
HLA-B*15:01 [22] = assay: as above; conditions: source organism: Vaccinia virus Copenhagen
HLA-A*31:01 [23] = assay: IEDB peptide-MHC binding, purified MHC/competitive/radioactivity; filed as Kd, often an IC50 or EC50 that approximates it; ≥ and ≤ were set here for values at or beyond the usual limits of such assays; conditions: source organism: Vaccinia virus WR
HLA-A*33:01 = assay: as above; conditions: source organism: Vaccinia virus WR
HLA-A*68:01 = assay: as above; conditions: source organism: Vaccinia virus WR
HLA-B*07:02 [24] = assay: IEDB peptide-MHC binding, purified MHC/competitive/fluorescence; filed as Kd, often an IC50 or EC50 that approximates it; ≥ and ≤ were set here for values at or beyond the usual limits of such assays; conditions: source organism: Influenza A virus (A/chicken/Scotland/1959(H5N1))
HLA-C*15:02 = assay: IEDB peptide-MHC binding, purified MHC/direct/fluorescence; filed as Kd, often an IC50 or EC50 that approximates it; ≥ and ≤ were set here for values at or beyond the usual limits of such assays
HLA-B*46:01 [25] = assay: IEDB peptide-MHC binding, purified MHC/competitive/fluorescence; filed as Kd, often an IC50 or EC50 that approximates it; ≥ and ≤ were set here for values at or beyond the usual limits of such assays; conditions: source organism: Bacillus anthracis str. A0488
HLA-A*24:02 = assay: IEDB peptide-MHC binding, purified MHC/competitive/fluorescence; ≥ and ≤ were set here for values at or beyond the usual limits of such assays; conditions: source organism: Vaccinia virus Copenhagen
[26] = source organism: Camelpox virus M-96
[27] = source organism: Vaccinia virus Copenhagen
[28] = source organism: Camelpox virus CMS
[29] = source organism: Vaccinia virus Tian Tan

## SLYKYLLLR
HLA-A*01:01 [1]; [26]
  Kd: ≥ 20000 nM
HLA-A*03:01 [2]; [26]
  Kd: 31 nM
HLA-A*11:01 [3]; [26]
  Kd: 47 nM
HLA-A*26:01 [4]
  Kd: ≥ 20000 nM
HLA-A*26:02
  Kd: ≥ 20000 nM
HLA-A*69:01; [26]
  Kd: ≥ 20000 nM
HLA-B*07:02 [5]; [26]
  Kd: ≥ 20000 nM
HLA-B*08:01
  Kd: ≥ 20000 nM
HLA-B*08:03
  Kd: ≥ 20000 nM
HLA-B*15:01 [6]; [26]
  Kd: ≥ 20000 nM
HLA-B*18:01 [7]
  Kd: ≥ 20000 nM
HLA-B*40:01; [26]
  Kd: ≥ 20000 nM
HLA-B*46:01 [8]
  Kd: ≥ 20000 nM
HLA-B*48:01; [26]
  Kd: ≥ 20000 nM
HLA-B*57:01
  Kd: ≥ 20000 nM
HLA-B*58:01; [26]
  Kd: ≥ 20000 nM
HLA-A*02:01 [9]
  Kd: 555 nM
HLA-A*26:03; [27]
  Kd: ≥ 20000 nM
HLA-A*31:01 [10]
  Kd: 1.17 nM
HLA-A*68:02; [27]
  Kd: 3900 nM
HLA-B*15:17; [27]
  Kd: ≥ 20000 nM
HLA-B*27:05 [11]
  Kd: 2460 nM

## KVFFGPIYY
HLA-A*01:01 [1]; [28]
  Kd: ≥ 20000 nM
HLA-A*02:01 [12]
  Kd: ≥ 20000 nM
HLA-A*03:01 [2]; [28]
  Kd: 29 nM
HLA-A*11:01 [3]; [28]
  Kd: 22 nM
HLA-A*31:01 [13]
  Kd: 1290 nM
HLA-A*69:01; [28]
  Kd: ≥ 20000 nM
HLA-B*07:02 [5]; [28]
  Kd: ≥ 20000 nM
HLA-B*08:01
  Kd: ≥ 20000 nM
HLA-B*08:03
  Kd: ≥ 20000 nM
HLA-B*27:05 [14]
  Kd: ≥ 20000 nM
HLA-B*40:01; [28]
  Kd: ≥ 20000 nM
HLA-B*48:01; [28]
  Kd: ≥ 20000 nM
HLA-B*58:01; [28]
  Kd: 21 nM
HLA-C*12:03
  Kd: 45 nM
HLA-A*02:06
  Kd: 1800 nM
HLA-A*26:01 [15]
  Kd: 3000 nM
HLA-A*26:03; [29]
  Kd: ≥ 20000 nM
HLA-A*68:02; [29]
  Kd: ≥ 20000 nM
HLA-B*15:01 [16]
  Kd: 423 nM
HLA-B*15:17; [29]
  Kd: 21.6 nM
HLA-B*18:01 [17]
  Kd: ≥ 20000 nM
HLA-B*35:01
  Kd: 333 nM
HLA-A*30:01
  Kd: 154 nM

## KVAQAAAAM
HLA-B*07:02 [5]; source organism: Vibrio parahaemolyticus
  Kd: 34 nM
HLA-B*15:01 [6]; source organism: Vibrio parahaemolyticus AQ3810
  Kd: 29 nM
HLA-B*51:01
  Kd: ≥ 20000 nM
HLA-C*14:02
  Kd: 72 nM

## KLNGAMVEY
HLA-A*01:01 [18]; [27]
  IC50: ≥ 192000 nM
HLA-A*02:01 [19]
  IC50: ≥ 95400 nM
HLA-A*03:01 [20]
  IC50: 11600 nM
HLA-A*11:01 [21]
  IC50: 7970 nM
HLA-B*15:01 [22]
  IC50: 12200 nM
HLA-A*31:01 [23]
  Kd: 1180 nM
HLA-A*33:01
  Kd: 1960 nM
HLA-A*68:01
  Kd: 5.97 nM

## SPYRTLMSCPI
HLA-B*07:02 [24]
  Kd: 3.6 nM

## LQIPFAMQM
HLA-B*15:01 [6]; source organism: SARS-CoV1
  Kd: 180 nM
HLA-B*40:01; source organism: SARS-CoV1
  Kd: 4040 nM
HLA-B*58:01; source organism: SARS-CoV1
  Kd: 986 nM
HLA-C*15:02; source organism: SARS-CoV1
  Kd: 110 nM

## VVDPDDGSY
HLA-A*01:01 [18]; source organism: Zaire ebolavirus
  IC50: 44100 nM

## LMAFSTGPF
HLA-C*15:02; source organism: Bacillus anthracis str. A0488
  Kd: ≥ 20000 nM
HLA-B*46:01 [25]
  Kd: 2760 nM

## LYQLLEAVY
HLA-A*01:01 [18]; [27]
  IC50: ≥ 199000 nM
HLA-A*02:01 [19]
  IC50: ≥ 72800 nM
HLA-A*24:02
  IC50: 68.7 nM
HLA-B*15:01 [22]
  IC50: ≥ 71900 nM
